The values that follow come from US11702475B2, “Cysteine engineered fibronectin type III domain binding molecules” (Janssen Biotech, Inc., priority 2013, dated 2023).

B1: P114AR7P94-A3: c-Met-binding FN3 domain, SEQ ID NO: 41 (protein)
chain: LPAPKNLVVSRVTEDSARLSWTAPDAAFDSFWIRYFEFLGSGEAIVLTVPGSERSYDLTGLKPGTEYVVNIMGVKGGKISPPLSAIFTT
modifications: c-Met binding FN3 domain
B2: P114AR7P94-E5: c-Met-binding FN3 domain, SEQ ID NO: 42 (protein)
chain: LPAPKNLVVSRVTEDSARLSWTAPDAAFDSFWIRYFEFLGSGEAIVLTVPGSERSYDLTGLKPGTEYAVNIMGVKGGRVSVPLSAIFTT
modifications: c-Met binding FN3 domain
B3: P114AR5P74-A5: c-Met-binding FN3 domain, SEQ ID NO: 32 (protein)
chain: LPAPKNLVVSRVTEDSARLSWTAPDAAFDSFWIRYDEVVVGGEAIVLTVPGSERSYDLTGLKPGTEYYVNILGVKGGSISVPLSAIFTT
modifications: c-Met binding FN3 domain
B4: P114AR7P92-F6: c-Met-binding FN3 domain, SEQ ID NO: 35 (protein)
chain: LPAPKNLVVSRVTEDSARLSWTAPDAAFDSFWIRYFEFLGSGEAIVLTVPGSERSYDLTGLKPGTEYVVNILGVKGGGLSVPLSAIFTT
modifications: c-Met binding FN3 domain
B5: P114AR7P95-H8: c-Met-binding FN3 domain, SEQ ID NO: 49 (protein)
chain: LPAPKNLVVSRVTEDSARLSWTAPDAAFDSFWIRYFEFVSKGEAIVLTVPGSERSYDLTGLKPGTEYVVNIMGVKGGSISPPLSAIFTT
modifications: c-Met binding FN3 domain
B6: P114AR7P95-D4: c-Met-binding FN3 domain, SEQ ID NO: 45 (protein)
chain: LPAPKNLVVSRVTEDSARLSWTAPDAAFDSFWIRYFEFLGSGEAIVLTVPGSERSYDLTGLKPGTEYVVQILGVKGGYISIPLSAIFTT
modifications: c-Met binding FN3 domain
B7: P114AR7P95-G7: c-Met-binding FN3 domain, SEQ ID NO: 48 (protein)
chain: LPAPKNLVVSRVTEDSARLSWTAPDAAFDSFWIRYFELLSTGEAIVLTVPGSERSYDLTGLKPGTEYVVNIMGVKGGSISPPLSAIFTT
modifications: c-Met binding FN3 domain
B8: P114AR7P95-F10: c-Met-binding FN3 domain, SEQ ID NO: 47 (protein)
chain: LPAPKNLVVSRVTEDSARLSWTAPDAAFDSFWIRYFEFTTAGEAIVLTVPGSERSYDLTGLKPGTEYVVNIMGVKGGSISPPLSAIFTT
modifications: c-Met binding FN3 domain
B9: ECB15: bispecific SEQ ID 57: P54AR4-83V2, (AP)5, P114AR7P94-A3 (protein)
chain: MLPAPKNLVVSEVTEDSARLSWDDPWAFYESFLIQYQESEKVGEAIVLTVPGSERSYDLTGLKPGTEYTVSIYGVHNVYKDTNMRGLPLSAIFTTAPAPAPAPAPLPAPKNLVVSRVTEDSARLSWTAPDAAFDSFWIRYFEFLGSGEAIVLTVPGSERSYDLTGLKPGTEYVVNIMGVKGGKISPPLSAIFTT
modifications: bispecific EGFR/cMet binding molecule
B10: ECB95: bispecific SEQ ID 62: P54AR4-83V22, (AP)5, P114AR9P121-A6v2 (protein)
chain: MLPAPKNLVVSEVTEDSARLSWDDPWAFYESFLIQYQESEKVGEAIVLTVPGSERSYDLTGLKPGTEYTVSIYGVHNVYKDTNIRGLPLSAIFTTAPAPAPAPAPLPAPKNLVVSRVTEDSARLSWTAPDAAFDSFWIRYFEFVGSGEAIVLTVPGSERSYDLTGLKPGTEYVVNILGVKGGSISPPLSAIFTT
modifications: bispecific EGFR/cMet binding molecule
B11: ECB108: bispecific SEQ ID 67: P54AR4-83V23, (AP)5, P114AR9P122-A7v2 (protein)
chain: MLPAPKNLVVSEVTEDSARLSWDDPHAFYESFLIQYQESEKVGEAIVLTVPGSERSYDLTGLKPGTEYTVSIYGVHNVYKDTNIRGLPLSAIFTTAPAPAPAPAPLPAPKNLVVSRVTEDSARLSWTAPDAAFDSFWIRYFEFVSKGDAIVLTVPGSERSYDLTGLKPGTEYVVNILGVKGGSISPPLSAIFTT
modifications: bispecific EGFR/cMet binding molecule
B12: ECB94: bispecific SEQ ID 61: P54AR4-83V22, (AP)5, P114AR7P94-A3v22 (protein)
chain: MLPAPKNLVVSEVTEDSARLSWDDPWAFYESFLIQYQESEKVGEAIVLTVPGSERSYDLTGLKPGTEYTVSIYGVHNVYKDTNIRGLPLSAIFTTAPAPAPAPAPLPAPKNLVVSRVTEDSARLSWTAPDAAFDSFWIRYFEFLGSGEAIVLTVPGSERSYDLTGLKPGTEYVVNILGVKGGKISPPLSAIFTT
modifications: bispecific EGFR/cMet binding molecule
B13: ECB97: bispecific SEQ ID 64: P54AR4-83V22, (AP)5, P114AR7P95-C5V2 (protein)
chain: MLPAPKNLVVSEVTEDSARLSWDDPWAFYESFLIQYQESEKVGEAIVLTVPGSERSYDLTGLKPGTEYTVSIYGVHNVYKDTNIRGLPLSAIFTTAPAPAPAPAPLPAPKNLVVSRVTEDSARLSWTAPDAAFDSFWIRYFEFLGSGEAIVLTVPGSERSYDLTGLKPGTEYVVNILSVKGGSISPPLSAIFTT
modifications: bispecific EGFR/cMet binding molecule
B14: ECB107: bispecific SEQ ID 66: P54AR4-83V23, (AP)5, P114AR9P121-A6v2 (protein)
chain: MLPAPKNLVVSEVTEDSARLSWDDPHAFYESFLIQYQESEKVGEAIVLTVPGSERSYDLTGLKPGTEYTVSIYGVHNVYKDTNIRGLPLSAIFTTAPAPAPAPAPLPAPKNLVVSRVTEDSARLSWTAPDAAFDSFWIRYFEFVGSGEAIVLTVPGSERSYDLTGLKPGTEYVVNILGVKGGSISPPLSAIFTT
modifications: bispecific EGFR/cMet binding molecule
B15: ECB106: bispecific SEQ ID 65: P54AR4-83V23, (AP)5, P114AR7P94-A3v22 (protein)
chain: MLPAPKNLVVSEVTEDSARLSWDDPHAFYESFLIQYQESEKVGEAIVLTVPGSERSYDLTGLKPGTEYTVSIYGVHNVYKDTNIRGLPLSAIFTTAPAPAPAPAPLPAPKNLVVSRVTEDSARLSWTAPDAAFDSFWIRYFEFLGSGEAIVLTVPGSERSYDLTGLKPGTEYVVNILGVKGGKISPPLSAIFTT
modifications: bispecific EGFR/cMet binding molecule
B16: ECB109: bispecific SEQ ID 68: P54AR4-83V23, (AP)5, P114AR7P95-C5V2 (protein)
chain: MLPAPKNLVVSEVTEDSARLSWDDPHAFYESFLIQYQESEKVGEAIVLTVPGSERSYDLTGLKPGTEYTVSIYGVHNVYKDTNIRGLPLSAIFTTAPAPAPAPAPLPAPKNLVVSRVTEDSARLSWTAPDAAFDSFWIRYFEFLGSGEAIVLTVPGSERSYDLTGLKPGTEYVVNILSVKGGSISPPLSAIFTT
modifications: bispecific EGFR/cMet binding molecule
B17: ECB96: bispecific SEQ ID 63: P54AR4-83V22, (AP)5, P114AR9P122-A7v2 (protein)
chain: MLPAPKNLVVSEVTEDSARLSWDDPWAFYESFLIQYQESEKVGEAIVLTVPGSERSYDLTGLKPGTEYTVSIYGVHNVYKDTNIRGLPLSAIFTTAPAPAPAPAPLPAPKNLVVSRVTEDSARLSWTAPDAAFDSFWIRYFEFVSKGDAIVLTVPGSERSYDLTGLKPGTEYVVNILGVKGGSISPPLSAIFTT
modifications: bispecific EGFR/cMet binding molecule

System in the first data set: not listed separately
Put plainly: Body weight and tolerability in the H292-HGF xenograft study. The conditions noted are these: doses as in E46.
Protocol: At the time of routine monitoring, the animals were checked for any effects of tumor growth and treatments on normal behavior, such as mobility, visual estimation of food and water consumption, body weight gain/loss (body weights were measured twice weekly), eye/hair matting and any other abnormal effect.
Animals for which the body weight loss exceeded 20%, or for which the mean tumor size of the group exceeds 2000 mm^3 were euthanized. The study was terminated after two weeks of observation after the final dose.
Consider `C#Cc1cccc(Nc2ncnc3cc(OCCOC)c(OCCOC)cc23)c1` [Erlotinib, erlotinib], for which the “toxicity / body weight loss / tolerability (in words)” value is on record as “More severe body weight loss”.

System in another data set: not listed separately
Put plainly: Differential scanning calorimetry in PBS of FN3 domains. The conditions noted are these: DSC in PBS; c-Met-binding FN3 domains. In kind it is physicochemical. From the text: A subset of the EGFR binding FN3 domains was engineered to increase the conformational stability of each molecule. The mutations L17A, N46V, and E86I (described in US Pat. Publ. No. 2011/0274623) were incorporated into clones P54AR4-83, P54CR4-31, and P54AR4-37 by DNA synthesis. […] Differential scanning calorimetry in PBS was used to assess the stability of each mutant in order to compare it to that of the corresponding parent molecule.
Thermal Stability of c-Met-Binding FN3 Domains Differential scanning calorimetry in PBS was used to assess the stability of each FN3 domain.
In general terms: Differential scanning calorimetry records heat flow against a reference as temperature is scanned.
For the molecule B1, the “Thermal Stability (Tm)” value was 86.2 C.

Regarding B2, the “Thermal Stability (Tm)” value came out at 80 C.

Take B3: the “Thermal Stability (Tm)” value amounted to 74.1 C.

With B4, the “Thermal Stability (Tm)” value is on record as 76.8 C.

B5: the “Thermal Stability (Tm)” value stood at 83 C.

As for B6, the “Thermal Stability (Tm)” value worked out at 85.3 C.

With B7, the “Thermal Stability (Tm)” value came out at 87.2 C.

As for B8, the “Thermal Stability (Tm)” value is 85.2 C.

The subject of the next data set is H292 cells. Put plainly: Inhibition of proliferation of H292 cells (HGF-induced). In kind it is cell-based, human.
Conditions: not given
The source says:
Inhibition of tumor cell proliferation can be measured using standard methods and methods described herein.
It was verified that the enhanced potency for inhibition of EGFR and c-Met phosphorylation with the bispecific EGFR/c-Met molecules translated into an enhanced inhibition of signaling and proliferation. […] The proliferation assay was completed using different combinations EGFR and c-Met binding FN3 domains either as a mixture or linked in a bispecific format. […] This confirmed that the avidity effect observed at the level of the receptors (FIG. 6 and FIG. 7) translates into an improvement in inhibiting cell signaling (Table 17) and cell proliferation (Table 18).
Select EGFR/c-Met molecules were characterized for their affinity to both EGFR and c-Met, their ability to inhibit EGFR and c-Met autophosphorylation, and their effect on proliferation of HGF cells. Binding affinity of the bispecific EGFR/c-Met molecules to recombinant EGFR and/or c-Met extracellular domain was further by surface Plasmon resonance methods using a Proteon Instrument (BioRad) according to protocol described in Example 3.
As a reminder, the IC50 is the concentration that inhibits the measured activity by half. As to B9, the IC50 is 23 nM.

As for B10, the IC50 was found to be 383 nM.

With B11, the IC50 is 11400 nM.

Take B12: the half-maximal inhibitory concentration (IC50) was determined as 29.6 nM.

For B13, the IC50 came to 31 nM.

For B14, the IC50 amounted to 2640 nM.

In the case of B15, the IC50 is 484 nM.

Turning to B16, the IC50 amounted to 574 nM.

For the molecule B17, the concentration for half-maximal inhibition (IC50) was 9480 nM.
